# Results taken from US20210324359A1, “USE OF GRAM-NEGATIVE LYSIN-ANTIMICROBIAL PEPTIDE (AMP) POLYPEPTIDE CONSTRUCTS IN TREATING ENDOCARDITIS” (priority 2020, published 2021).
# Experiments:
# [1] = system: biofilms formed by P. aeruginosa strain ATCC 17646; settings: strain ATCC 17646 biofilm
# Experimental: Biofilms are then washed and treated with e.g., a 2-fold dilution series of the lysin in TSBg at e.g., 37° C. for 24 hours. After treatment, wells are washed, air-dried at e.g., 37° C. and stained with e.g., 0.05% crystal violet for 10 minutes.
# [2] = system: P. aeruginosa strain PA453; assay: Time-kill assay of GN370 in animal blood (Table 34); format: cell-based, Pseudomonas aeruginosa; settings: for Log10 CFU/mL of P. aeruginosa: limit of detection 1.6
# From the text: The results are shown below in Table 34, wherein survival is reported as Log10 CFU/mL and wherein the limit of detection was 1.6 Log10 CFU/mL.
molecule,measurement,setting,value
"GN370: lysin-AMP construct: MIDR, FIRL and NPTH moieties N-terminal to GN202 lysin (SEQ ID NO: 44) (protein) MIDRFIRLNPTHGPRRPRRPGRRAPVRTSQRGIDLIKSFEGLRLSAYQDSVGVWTIGYGTTRGVTRYMTITVEQAERMLSNDIQRFEPELDRLAKVPLNQNQWDALMSFVYNLGAANLASSTLLDLLNKGDYQGAADQFPHWVNAGGKRLDGLVKRRAAERALFLEPLS",MBEC,[1],1 µg/mL
same,Log10 CFU/mL of P. aeruginosa,"[2]; Dog blood, 2 hours, GN370 4 μg/mL",3.5 Log10 CFU/mL
same,Log10 CFU/mL of P. aeruginosa,"[2]; Dog blood, 2 hours, GN370 20 μg/mL",1.6 Log10 CFU/mL
same,Log10 CFU/mL of P. aeruginosa,"[2]; Dog blood, 2 hours, GN370 50 μg/mL",1.6 Log10 CFU/mL
same,Log10 CFU/mL of P. aeruginosa,"[2]; Dog blood, 2 hours, GN370 100 μg/mL",1.6 Log10 CFU/mL
same,Log10 CFU/mL of P. aeruginosa,"[2]; Dog blood, 2 hours, GN370 200 μg/mL",1.6 Log10 CFU/mL
same,Log10 CFU/mL of P. aeruginosa,"[2]; Dog blood, 4 hours, GN370 4 μg/mL",4.7 Log10 CFU/mL
same,Log10 CFU/mL of P. aeruginosa,"[2]; Dog blood, 4 hours, GN370 20 μg/mL",1.6 Log10 CFU/mL
same,Log10 CFU/mL of P. aeruginosa,"[2]; Dog blood, 4 hours, GN370 50 μg/mL",1.6 Log10 CFU/mL
same,Log10 CFU/mL of P. aeruginosa,"[2]; Dog blood, 4 hours, GN370 100 μg/mL",1.6 Log10 CFU/mL
same,Log10 CFU/mL of P. aeruginosa,"[2]; Dog blood, 4 hours, GN370 200 μg/mL",1.6 Log10 CFU/mL
same,Log10 CFU/mL of P. aeruginosa,"[2]; Dog blood, 24 hours, GN370 4 μg/mL",7.2 Log10 CFU/mL
same,Log10 CFU/mL of P. aeruginosa,"[2]; Dog blood, 24 hours, GN370 20 μg/mL",1.6 Log10 CFU/mL
same,Log10 CFU/mL of P. aeruginosa,"[2]; Dog blood, 24 hours, GN370 50 μg/mL",1.6 Log10 CFU/mL
same,Log10 CFU/mL of P. aeruginosa,"[2]; Dog blood, 24 hours, GN370 100 μg/mL",1.6 Log10 CFU/mL
same,Log10 CFU/mL of P. aeruginosa,"[2]; Dog blood, 24 hours, GN370 200 μg/mL",1.6 Log10 CFU/mL
same,Log10 CFU/mL of P. aeruginosa,"[2]; Human blood, 2 hours, GN370 4 μg/mL",1.6 Log10 CFU/mL
same,Log10 CFU/mL of P. aeruginosa,"[2]; Human blood, 2 hours, GN370 20 μg/mL",1.6 Log10 CFU/mL
same,Log10 CFU/mL of P. aeruginosa,"[2]; Human blood, 2 hours, GN370 50 μg/mL",1.6 Log10 CFU/mL
same,Log10 CFU/mL of P. aeruginosa,"[2]; Human blood, 2 hours, GN370 100 μg/mL",1.6 Log10 CFU/mL
same,Log10 CFU/mL of P. aeruginosa,"[2]; Human blood, 2 hours, GN370 200 μg/mL",1.6 Log10 CFU/mL
same,Log10 CFU/mL of P. aeruginosa,"[2]; Human blood, 4 hours, GN370 4 μg/mL",1.6 Log10 CFU/mL
same,Log10 CFU/mL of P. aeruginosa,"[2]; Human blood, 4 hours, GN370 20 μg/mL",1.6 Log10 CFU/mL
same,Log10 CFU/mL of P. aeruginosa,"[2]; Human blood, 4 hours, GN370 50 μg/mL",1.6 Log10 CFU/mL
same,Log10 CFU/mL of P. aeruginosa,"[2]; Human blood, 4 hours, GN370 100 μg/mL",1.6 Log10 CFU/mL
same,Log10 CFU/mL of P. aeruginosa,"[2]; Human blood, 4 hours, GN370 200 μg/mL",1.6 Log10 CFU/mL
same,Log10 CFU/mL of P. aeruginosa,"[2]; Human blood, 24 hours, GN370 4 μg/mL",4.1 Log10 CFU/mL
same,Log10 CFU/mL of P. aeruginosa,"[2]; Human blood, 24 hours, GN370 20 μg/mL",1.6 Log10 CFU/mL
same,Log10 CFU/mL of P. aeruginosa,"[2]; Human blood, 24 hours, GN370 50 μg/mL",1.6 Log10 CFU/mL
same,Log10 CFU/mL of P. aeruginosa,"[2]; Human blood, 24 hours, GN370 100 μg/mL",1.6 Log10 CFU/mL
same,Log10 CFU/mL of P. aeruginosa,"[2]; Human blood, 24 hours, GN370 200 μg/mL",1.6 Log10 CFU/mL
same,Log10 CFU/mL of P. aeruginosa,"[2]; Rabbit blood, 2 hours, GN370 4 μg/mL",1.6 Log10 CFU/mL
same,Log10 CFU/mL of P. aeruginosa,"[2]; Rabbit blood, 2 hours, GN370 20 μg/mL",1.6 Log10 CFU/mL
same,Log10 CFU/mL of P. aeruginosa,"[2]; Rabbit blood, 2 hours, GN370 50 μg/mL",1.6 Log10 CFU/mL
same,Log10 CFU/mL of P. aeruginosa,"[2]; Rabbit blood, 2 hours, GN370 100 μg/mL",1.6 Log10 CFU/mL
same,Log10 CFU/mL of P. aeruginosa,"[2]; Rabbit blood, 2 hours, GN370 200 μg/mL",1.6 Log10 CFU/mL
same,Log10 CFU/mL of P. aeruginosa,"[2]; Rabbit blood, 4 hours, GN370 4 μg/mL",3.0 Log10 CFU/mL
same,Log10 CFU/mL of P. aeruginosa,"[2]; Rabbit blood, 4 hours, GN370 20 μg/mL",1.6 Log10 CFU/mL
same,Log10 CFU/mL of P. aeruginosa,"[2]; Rabbit blood, 4 hours, GN370 50 μg/mL",1.6 Log10 CFU/mL
same,Log10 CFU/mL of P. aeruginosa,"[2]; Rabbit blood, 4 hours, GN370 100 μg/mL",1.6 Log10 CFU/mL
same,Log10 CFU/mL of P. aeruginosa,"[2]; Rabbit blood, 4 hours, GN370 200 μg/mL",1.6 Log10 CFU/mL
same,Log10 CFU/mL of P. aeruginosa,"[2]; Rabbit blood, 24 hours, GN370 4 μg/mL",4.9 Log10 CFU/mL
same,Log10 CFU/mL of P. aeruginosa,"[2]; Rabbit blood, 24 hours, GN370 20 μg/mL",1.6 Log10 CFU/mL
same,Log10 CFU/mL of P. aeruginosa,"[2]; Rabbit blood, 24 hours, GN370 50 μg/mL",1.6 Log10 CFU/mL
same,Log10 CFU/mL of P. aeruginosa,"[2]; Rabbit blood, 24 hours, GN370 100 μg/mL",1.6 Log10 CFU/mL
same,Log10 CFU/mL of P. aeruginosa,"[2]; Rabbit blood, 24 hours, GN370 200 μg/mL",1.6 Log10 CFU/mL
same,Log10 CFU/mL of P. aeruginosa,"[2]; Rat blood, 2 hours, GN370 4 μg/mL",5.9 Log10 CFU/mL
same,Log10 CFU/mL of P. aeruginosa,"[2]; Rat blood, 2 hours, GN370 20 μg/mL",6.1 Log10 CFU/mL
same,Log10 CFU/mL of P. aeruginosa,"[2]; Rat blood, 2 hours, GN370 50 μg/mL",1.6 Log10 CFU/mL
same,Log10 CFU/mL of P. aeruginosa,"[2]; Rat blood, 2 hours, GN370 100 μg/mL",1.6 Log10 CFU/mL
same,Log10 CFU/mL of P. aeruginosa,"[2]; Rat blood, 2 hours, GN370 200 μg/mL",1.6 Log10 CFU/mL
same,Log10 CFU/mL of P. aeruginosa,"[2]; Rat blood, 4 hours, GN370 4 μg/mL",7.0 Log10 CFU/mL
same,Log10 CFU/mL of P. aeruginosa,"[2]; Rat blood, 4 hours, GN370 20 μg/mL",6.2 Log10 CFU/mL
same,Log10 CFU/mL of P. aeruginosa,"[2]; Rat blood, 4 hours, GN370 50 μg/mL",3.7 Log10 CFU/mL
same,Log10 CFU/mL of P. aeruginosa,"[2]; Rat blood, 4 hours, GN370 100 μg/mL",1.6 Log10 CFU/mL
same,Log10 CFU/mL of P. aeruginosa,"[2]; Rat blood, 4 hours, GN370 200 μg/mL",1.6 Log10 CFU/mL
same,Log10 CFU/mL of P. aeruginosa,"[2]; Rat blood, 24 hours, GN370 4 μg/mL",7.9 Log10 CFU/mL
same,Log10 CFU/mL of P. aeruginosa,"[2]; Rat blood, 24 hours, GN370 20 μg/mL",7.8 Log10 CFU/mL
same,Log10 CFU/mL of P. aeruginosa,"[2]; Rat blood, 24 hours, GN370 50 μg/mL",7.6 Log10 CFU/mL
same,Log10 CFU/mL of P. aeruginosa,"[2]; Rat blood, 24 hours, GN370 100 μg/mL",3.6 Log10 CFU/mL
same,Log10 CFU/mL of P. aeruginosa,"[2]; Rat blood, 24 hours, GN370 200 μg/mL",1.6 Log10 CFU/mL
same,"activity in dog, human, and rabbit blood (time-kill)","[2]; all times, 20-200 μg/mL, strain PA453",high activity
same,activity in rat blood (time-kill),"[2]; majority of the times and concentrations tested, strain PA453",poor or no activity
